This note sets out measurements from patent US20240349752A1 (CLARA FOODS, published 2024).

For the assay, the target named is bovine trypsin (bovine, UniProt P00760 24-246). The assay is described as follows: cell-based or functional assay.
Chain of bovine trypsin (P00760 24-246): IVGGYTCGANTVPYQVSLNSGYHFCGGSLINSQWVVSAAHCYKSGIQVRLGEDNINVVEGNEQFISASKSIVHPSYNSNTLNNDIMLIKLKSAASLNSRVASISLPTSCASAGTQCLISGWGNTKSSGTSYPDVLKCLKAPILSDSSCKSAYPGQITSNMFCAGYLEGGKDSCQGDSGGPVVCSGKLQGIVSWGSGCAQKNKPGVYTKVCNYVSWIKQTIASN

B1: Native chicken Ovomucoid (other)
chain: AEVDCSRFPNATDKEGKDVLVCNKDLRPICGTDGVTYTNDCLLCAYSIEFGTNISKEHDGECKETVPMNCSSYANTTSEDGKVMVLCNRAFNPVCGTDGVTYDNECLLCAHKVEQGASVDKRHDGGCRKELAAVSVDCSEYPKPDCTAEDRPLCGSDNKTYGNKCNFCNAVVESNGTLTLSHFGKC
modifications: complex branched N-linked glycosylation (includes mannose)
On to B1, for which the Trypsin inhibition activity amounted to 13700 TIU/g.
